Data as given in patent US20090118184A1 (UNIVERSITY OF ROCHESTER, published 2009).
Numbering of substitutions follows the chain as printed.

Key:
Assay in all cases: cell-based or functional assay
[1] = target: T1, factor VIIIa A1/A3C1C2 dimer, Glu1984Ala (human, UniProt P00451 20-391; P00451 1709-2351)
T1 sequence 1: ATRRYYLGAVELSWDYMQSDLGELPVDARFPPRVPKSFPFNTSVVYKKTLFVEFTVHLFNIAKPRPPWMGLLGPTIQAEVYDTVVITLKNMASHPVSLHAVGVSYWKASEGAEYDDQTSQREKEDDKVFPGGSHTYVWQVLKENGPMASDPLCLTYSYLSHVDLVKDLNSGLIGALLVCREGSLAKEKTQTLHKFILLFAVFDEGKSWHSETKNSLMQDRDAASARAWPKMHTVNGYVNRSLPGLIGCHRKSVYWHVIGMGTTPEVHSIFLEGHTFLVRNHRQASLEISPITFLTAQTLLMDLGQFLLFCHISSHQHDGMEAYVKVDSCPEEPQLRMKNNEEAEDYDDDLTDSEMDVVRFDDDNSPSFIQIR
T1 sequence 2: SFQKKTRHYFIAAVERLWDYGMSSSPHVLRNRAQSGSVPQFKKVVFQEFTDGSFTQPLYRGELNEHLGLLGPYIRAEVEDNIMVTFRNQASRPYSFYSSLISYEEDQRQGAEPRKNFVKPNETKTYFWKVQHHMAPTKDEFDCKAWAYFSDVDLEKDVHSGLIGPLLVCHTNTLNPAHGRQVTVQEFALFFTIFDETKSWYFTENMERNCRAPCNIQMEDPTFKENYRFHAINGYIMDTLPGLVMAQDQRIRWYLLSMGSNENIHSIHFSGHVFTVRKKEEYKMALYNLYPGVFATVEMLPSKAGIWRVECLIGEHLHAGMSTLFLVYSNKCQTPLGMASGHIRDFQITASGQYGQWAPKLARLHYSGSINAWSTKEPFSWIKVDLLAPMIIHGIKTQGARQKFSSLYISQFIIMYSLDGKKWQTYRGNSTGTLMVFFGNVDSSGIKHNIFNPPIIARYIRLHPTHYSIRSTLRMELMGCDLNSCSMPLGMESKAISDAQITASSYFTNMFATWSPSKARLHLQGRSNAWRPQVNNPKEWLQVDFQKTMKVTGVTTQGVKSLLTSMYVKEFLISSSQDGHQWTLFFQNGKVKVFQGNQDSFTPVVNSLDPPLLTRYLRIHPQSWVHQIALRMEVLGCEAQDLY

[2] = target: T2, factor VIIIa A1/A3C1C2 dimer, wild type (human, UniProt P00451 20-391; P00451 1709-2351)
T2 sequence 1: T1 sequence 1
T2 sequence 2: T1 sequence 2 with A295E

[3] = target: T3, factor VIIIa A1/A3C1C2 dimer, Glu272Val (human, UniProt P00451 20-391; P00451 1709-2351)
T3 chain 1: T1 sequence 1 with E272V
T3 chain 2: T1 sequence 2 with A295E

[4] = target: T4, factor VIIIa A1/A3C1C2 dimer, D1795A (human, UniProt P00451 20-391; P00451 1709-2351)
T4 sequence 1: T1 sequence 1
T4 sequence 2: T1 sequence 2 with D106A, A295E

B1: factor VIIIa A2 subunit, wild type (other)
chain: SVAKKHPKTWVHYIAAEEEDWDYAPLVLAPDDRSYKSQYLNNGPQRIGRKYKKVRFMAYTDETFKTREAIQHESGILGPLLYGEVGDTLLIIFKNQASRPYNIYPHGITDVRPLYSRRLPKGVKHLKDFPILPGEIFKYKWTVTVEDGPTKSDPRCLTRYYSSFVNMERDLASGLIGPLLICYKESVDQRGNQIMSDKRNVILFSVFDENRSWYLTENIQRFLPNPAGVQLEDPEFQASNIMHSINGYVFDSLQLSVCLHEVAYWYILSIGAQTDFLSVFFSGYTFKHKMVYEDTLTLFPFSGETVFMSMENPGLWILGCHNSDFRNRGMTALLKVSSCDKNTGDYYEDSYEDISAYLLSKNNAIEPR
For B1, the “Factor VIIIa Decay relative to the WT value, Factor IXa absent” value [1] was 0.29 relative to WT, the “Factor VIIIa Decay relative to the WT value, Factor IXa present” value [1] was 0.18 relative to WT and the “Factor VIIIa Decay, Factor IXa absent” value [1] was 0.0241 min⁻¹. For the same binder, the “Factor VIIIa Decay, Factor IXa present” value [1] was 0.0027 min⁻¹, the “Factor VIIIa Decay relative to the WT value, Factor IXa absent” value [2] was 1 relative to WT and the “Factor VIIIa Decay relative to the WT value, Factor IXa present” value [2] was 1 relative to WT. The “Factor VIIIa Decay, Factor IXa absent” value [2] was 0.0836 min⁻¹, the “Factor VIIIa Decay, Factor IXa present” value [2] was 0.0154 min⁻¹ and the “Factor VIIIa Decay relative to the WT value, Factor IXa absent” value [3] was 2.72 relative to WT. The “Factor VIIIa Decay relative to the WT value, Factor IXa present” value [3] was 1.03 relative to WT, the “Factor VIIIa Decay, Factor IXa absent” value [3] was 0.227 min⁻¹ and the “Factor VIIIa Decay, Factor IXa present” value [3] was 0.0159 min⁻¹. The “Factor VIIIa decay rate relative to wild type, FIXa (+)” value [4] was 2.11 relative to wild type and the “Factor VIIIa decay rate, FIXa (+)” value [4] was 0.0238 min⁻¹.
